B1: Mag6390 (MAG_6390) (Mycoplasmopsis agalactiae PG2) (protein)
chain: MAKDKFVRTVLGDVPAESIGITDCHDHLIKNGGPEMHEHPDFLMIDVEAAKKEVQEYVDHGGKTIVTMDPPNVGRDVYRMLEIAEAFKGKANIVMSTGFHKAAFYDKYSSWLACVPTDDIVKMMVAEVEEGMDEYNYNGPVVKRSKAKAGIIKAGTGYAAIDRLELKALEVAARTSITTGCPILVHTQLGTMALEVAQHLIGFGANPRKIQLSHLNKNPDRYYYEKIIKETGVTICFDGPDRVKYYPDSLLADHIKYLVDKGLQKHITLSLDAGRILYQRNYGLTKGKETFGLSYLFERFIPLLKQVGVSQEAIDDILINNPREILAFDEPRVYDASKVSSEVVQLKKDLKLL
B2: Ms0025 (MS53_0025) (Mycoplasmopsis synoviae 53) (protein)
chain: MENKFARTVLGDIPVEKLGITDCHDHFIKNGGPEVEEHIDFLMLNVDASIKEFKEFIDRGGSTIVTMDPPNVGRDVLKTLEIANAVKNLGGNVIMSTGFHKAKFYDKYSSWLAVVPTEEIVKMCVAEIEEGMDEYNYNGPVVKRSKAKAGIIKAGTGYGAIDRLELKALEVAARTSILTGCPILVHTQLGTMALEVAKHLIGFGANPDKIQISHLNKNPDKYYYEKVIKETGVTLCFDGPDRVKYYPDSLLAENIKYLVDKGLQKHITLSLDAGRILYQRNYGLTKGKQTFGLAYLFDRFLPLLKQVGVSKEAIFDILVNNPKRVLAFDEKRNFDPLKVSKEVLELKKELNLN

What was measured:
purified protein [1] = substrate: O=C1O[C@@H](COP(=O)(O)O)[C@H](O)[C@H]1O; assay: purified protein; conditions: 2.5 mM Bicine pH 8.3, 0.2 M NaCl, zinc enzyme
purified protein [2] = substrate: O=C1O[C@H](COP(=O)(O)O)[C@H](O)[C@H]1O; assay: purified protein; conditions: 2.5 mM Bicine pH 8.3, 0.2 M NaCl, zinc enzyme

Protein	Km (purified protein [1]) [µM]	kcat (purified protein [1]) [s⁻¹]	kcat/Km (purified protein [1]) [M⁻¹ s⁻¹]	Km (purified protein [2]) [µM]	kcat (purified protein [2]) [s⁻¹]	kcat/Km (purified protein [2]) [M⁻¹ s⁻¹]
B1	660 ± 60	8.7 ± 0.3	13000 ± 1000	900 ± 100	–	–
B2	300 ± 20	–	–	500 ± 40	23.4 ± 0.8	47000 ± 4000

From article PMC4108184
